Source: paper PMC10565793, “Biochemical and X-ray analyses of the players involved in the faRel2/aTfaRel2 toxin–antitoxin operon” (Acta Crystallographica. Section F, Structural Biology …, 2023)

Target: T1, FaRel2^Y128F (catalytically impaired toxin FaRel2 from Coprobacillus sp. D7) (Coprobacillus sp. D7, Y128F (stands in the printed letters))
T1 construct: The His6-SUMO tag was removed with UlpI, and complete removal was confirmed by anti-His Western blot; also called tagless FaRel2^Y128F; His6-SUMO-FaRel2^Y128F (before cleavage); source: E. coli BL21(DE3), purified (Ni-NTA, SEC, UlpI cleavage, TALON, SEC); not shown: His6, N-terminal, cleaved; SUMO, N-terminal, cleaved
Assay: SEC; analytical SEC on a Superdex 75 Increase column in 25 mM HEPES, 300 mM NaCl, 1 mM TCEP, 2 mM MgCl2; proteins run alone, or FaRel2^Y128F and ATfaRel2 mixed in a 1:1.2 molar ratio; molecular weights estimated from elution volume
Details: both partners purified

B1: 6×His-TEV-ATfaRel2 (antitoxin ATfaRel2 from Coprobacillus sp. D7) (natural protein)
chain: AMCYIIAKRFKKSGCVALKAKRGKELADFATDLQKKLGYDIQIVAITRPTAYGEYEPYKFVNSFEEFSIEASRL
notes: The tag is not reported as removed; also called His6-TEV-ATfaRel2; source: E. coli BL21 (DE3), purified (Ni-NTA, SEC)
  stoichiometry N: 1 ATfaRel2 per FaRel2^Y128F (2:2 heterotetramer)
